Measured values: patent US7700353B2, “Compositions and methods for inducing apoptosis in tumor cells” (E-P Therapeutics, Inc., priority 1998, dated 2010)

B1: hEb: chemically synthesized human Eb peptide of pro-IGF-I, 77 amino acid residues (SEQ ID NO:1) (peptide, listed as Homo sapiens)
chain: RSVRAQRHTDMPKTQKYQPPSTNKNTKSQRRKGWPKTHPGGEQKEGTEASLQIRGKKKEQRREIGSRNAECRGKKGK
B2: rtEa-4: recombinant Ea-4 peptide of rainbow trout pro-IGF-I, 74 amino acid residues (SEQ ID NO: 2) (protein)
chain: RSVRAQRHTDMPRTPKVSTAVQNVDRGTERRTAQHPDKTKTKKKPLSGHSHPSCKEVHQKNSSRGNTGGRNYRM
modifications: Oncorhynchus mykiss

Experiments:
[1] = system: MDA-MB-231 and ZR-75-1 cells; experiment: Colony formation of hEb cDNA transfectants; format: cell-based, human; conditions: cells transfected with hEb cDNA
Method: Two gene constructs, CMV-IG F-1-sp-hEb-cDNA-IRES-EGFP and CMV-IRES-EGFP were used in the transfection studies. The first construct (FIG. 9B) contained hEb peptide cDNA (with a signal peptide sequence of hlGF-1), a ribosome re-entry site (IRES) and an enhanced green fluorescence protein (EGFP) marker gene. […] The expression of both gene constructs was driven by a promoter from CMV.
Transfection of the cells was accomplished as follows. MDA-MB-231 cells were cultured in F12/DMEM supplemented with 10% FBS and 10 ng/ml of insulin to 90% confluence. About 5×10^6 cells were harvested and resuspended in 1 mL of serum-free F12/DMEM containing 20 µg of un-linearized constructs. The cells were electroporated in a BRL Cell-Porator using the following settings: low .OMEGA., 1180 micro Faraday (µF) capacitance, and two pulses at 200 volts. Following electroporation, cells were resuspended in 12 mL of fresh growth medium and seeded into a 6-well plate to recover. Permanent transfectants expressing green fluorescence protein (GFP) were enriched in a medium containing neomycin (G418) at 1 mg/mL for ten days and followed with 500 µg/mL for continuous maintenance. Individual green cell clones of transfectants were isolated from the enriched population by the method of serial dilution. […]

MDA-MB-231(C) = experiment: Induction of apoptosis (TUNEL assay); format: cell-based, human; conditions: about 1.5 μM, two to three days
Method: FIG. 23 depicts induction of apoptosis in MDA-MB-231 cells by rtEA4-peptide. MDA-MB-231 cells were treated wit control protein or rtEa4-peptide (about 1.5 μM) for two days, and three days, and were then subjected to TUNEL assay. (A) Treatment with rtEa4-peptide for two days; (B) Treatment with rtEa-4-peptide for three days.
FIG. 24 depicts the effect of rtEa4-peptide on induction of apoptosis in MDA-MB-231 cells treated with rtEa4-peptide. (A) Detection of apoptosis by TUNEL assay; (B) Detection of apoptosis y detecting the induction of the activated caspase-3 activity. MDA-MB-231 cells were treated with about 1.5 μM of rtEa4-peptide for about 48 hours, fixed and subjected to TUNEL assay or stained with anti-human activated caspase-3 serum conjugated with rhodamine. Hydrogen peroxide (H2O2), 0.5 mM, was used to induce apoptosis as a positive control.

[2] = system: MCF-7, HT-29, HepG2, ZR-75-1, SK-N-F1, or HC cells; experiment: Morphological change assay in tumor cell lines; format: cell-based, human and fish
Method: Approximately 1-2×10^5 of MCF-7, ZR-75-1, HT-29, HepG2, 293GP, HC or SK-N-F1 cells re-suspended in their respective basal medium without fetal bovine serum (FBS) were plated in a 6-well culture chamber. Prior to plating cells, an acid-washed coverslip was placed in each well of the culture chamber. Recombinant rainbow trout E-peptides (rtEa-2, rtEa-3 or rtEa-4 peptide at 0.8 µM), human IGF-I (hIGF-1, 2.5 nM) or the same amount of control protein was added to each well and the cell cultures were incubated at 37° C. under a humidified atmosphere of 5% CO2. The control protein was prepared from E. coli cells carrying the expression plasmid but without the E-peptide gene according to the purification method described by Tian et al. (1999). Coverslips were removed from the culture chamber 24 hours after initiation of the treatment and observed under an Olympic inverted microscope equipped with differential interference phase contrast objective lenses or phase contrast objective lens (final magnification, 200×). The morphological change assay was performed at least 10 times with different batches of Ea-4 peptide preparations.
Oncogenic transformed or established cancer cells derived from human and fish (MCF-7, HT-29, HepG2, ZR-75-1, SK-N-F1, or HC cells) were plated in their respective serum-free basal medium supplemented with 0.8 µM of the trout recombinant Ea-4-peptide, with the control protein, or with 2.5 nM of the recombinant hlGF-I and the cultures were examined 24 hours later under an inverted microscope equipped with differential interference phase contrast objectives. […] The rtEa-4 peptide treated cells developed several pseudopodia-like structures to establish contact with neighboring cells similar to that seen in untransformed or non-malignant cells.
Because each of these tumor cell lines obtained from ATCC contains a mixed population of tumorous and nontumorous cells, only between 25-40% of the cells from each cell line responded to induction by rtEa-4-peptide. […]

[3] = system: NIH 3T3 cells and caprine mammary epithelium cells (CMEC); conditions: recombinant peptides; cited from earlier work
HT1080 cells = experiment: Matrigel invasion assay; format: cell-based, human; conditions: for # invaded cells/view (MIC): Matrigel insert; for # invaded cells/view (MIC) / # invaded cells/view (CIC): 24 hours; for # invaded cells/view (CIC): control insert
Method: Invasion assays were conducted in BIOCOAT MATRIGEL invasion chambers following the procedure provided by Becton Dickinson Labware (Bedford, Mass.; 40480 and 40481 guidelines). According to these procedures, 1×10^6 of HT1080 cells in DMEM supplemented with 1.25% FBS, with Ea-4 peptide (0.17 µM and 0.34 µM), or the same amount of the control protein, were plated in each insert of the Matrigel or control invasion chambers. The inserts were placed in the respective chambers containing DMEM medium supplemented with 10% FBS, and the chambers were incubated at 37° C. under a humidified atmosphere of 5% CO2 for 24 hours. After removal of the non-invaded cells with cotton swabs, the invaded cells on the other side of the membranes were stained with the Diff-Quick T stain (Becton Dickinson Labware, Bedford, Mass.) and observed under an Olympic inverted microscope (magnification, 200×). Control proteins were prepared from E. coli cells carrying the expression plasmid without the Ea-4-peptide gene by the same purification method (Tian et al., 1999). The assay was repeated three times.

| Molecule | colony formation activities [1] | TUNEL staining (MDA-MB-231(C)) | morphological change ([2]; 0.8 μM, 24 hours, serum-free basal medium) | cells from each cell line responding to induction ([2]; mixed population cell lines from ATCC) | mitogenic activity [3] | % Invasion (HT1080 cells; 0.17 μM) [%] | % Reduction of invasion (HT1080 cells; 0.17 μM) [%] | # invaded cells/view (MIC) (HT1080 cells; 0.17 μM) [cells/view] | # invaded cells/view (CIC) (HT1080 cells; 0.17 μM) [cells/view] | % Invasion (HT1080 cells; 0.34 μM) [%] | % Reduction of invasion (HT1080 cells; 0.34 μM) [%] | # invaded cells/view (MIC) (HT1080 cells; 0.34 μM) [cells/view] | # invaded cells/view (CIC) (HT1080 cells; 0.34 μM) [cells/view] | invasive activity (HT1080 cells; 0.17 and 0.34 μM) |
| --- | --- | --- | --- | --- | --- | --- | --- | --- | --- | --- | --- | --- | --- | --- |
| B1 | greatly reduced or diminished completely |  |  |  |  |  |  |  |  |  |  |  |  |  |
| B2 |  | TUNEL staining positive | flattened out and attached tightly to the culture dish | 25-40% | possess mitogenic activity | 19 | 52 | 30 ± 5 | 157 ± 6 | 15 | 62 | 24 ± 1 | 157 ± 6 | dose-dependent reduction |
